Experiments:
[1] = system: T1, CCCC(=O)Oc1ccc([N+](=O)[O-])cc1; experiment: p-nitrophenol release, Lineweaver-Burk plot; type: biochemical, uncultured bacterium; conditions: 50 mM Tris-HCl pH 8.0, 100 mM NaCl, 30 °C, 0.1-1.25 mM substrate
T1 construct: dimer ~70 kDa; residues Cys49 and Cys207
From the text: p-nitrophenol release, Lineweaver-Burk plot on PMGL3

[2] = biological target: PMGL3 mutant C49V (not stated (permafrost metagenomic library)); experiment: SEC; Superdex 75 10/300 GL, 0.4 mL/min, 100 mM Tris-HCl pH 8.0, 150 mM NaCl; fresh sample before heating; column calibrated with 29-669 kDa standards
[3] = biological target: PMGL3 mutant C49V (not stated (permafrost metagenomic library)); experiment: SEC; Superdex 75 10/300 GL, 0.4 mL/min, 100 mM Tris-HCl pH 8.0, 150 mM NaCl; sample after incubation for 1 h at 40 °C; column calibrated with 29-669 kDa standards
[4] = biological target: cold-active esterase PMGL3 (wild type) (not stated (permafrost metagenomic library)); experiment: SEC; Superdex 75 10/300 GL, 0.4 mL/min, 100 mM Tris-HCl pH 8.0, 150 mM NaCl; fresh sample before heating; column calibrated with 29-669 kDa standards
[5] = biological target: cold-active esterase PMGL3 (wild type) (not stated (permafrost metagenomic library)); experiment: SEC; Superdex 75 10/300 GL, 0.4 mL/min, 100 mM Tris-HCl pH 8.0, 150 mM NaCl; sample after incubation for 1 h at 40 °C; column calibrated with 29-669 kDa standards
[6] = biological target: PMGL3 mutant C207F (not stated (permafrost metagenomic library)); experiment: SEC; Superdex 75 10/300 GL, 0.4 mL/min, 100 mM Tris-HCl pH 8.0, 150 mM NaCl; fresh sample before heating; column calibrated with 29-669 kDa standards
[7] = biological target: PMGL3 mutant C207F (not stated (permafrost metagenomic library)); experiment: SEC; Superdex 75 10/300 GL, 0.4 mL/min, 100 mM Tris-HCl pH 8.0, 150 mM NaCl; sample after incubation for 1 h at 40 °C; column calibrated with 29-669 kDa standards

Row | Substance | Km [1] | Vmax [1] | kcat [1] | kcat/Km [1] | further results
1 | PMGL3 (unidentified) | 980 µM | 165000 µM/min/mg | 91.5 s⁻¹ | 93400 M⁻¹ s⁻¹ | 
2 | PMGL3 mutant C49V (enzyme) |  |  |  |  | stoichiometry N [2]: 2; stoichiometry N [3]: 4
3 | cold-active esterase PMGL3 (wild type) (enzyme) |  |  |  |  | stoichiometry N [4]: 2; stoichiometry N [5]: 4
4 | PMGL3 (unidentified; C49V) | 1290 µM | 94700 µM/min/mg | 52.6 s⁻¹ | 40800 M⁻¹ s⁻¹ | 
5 | PMGL3 (unidentified; C207F) | 170 µM | 94600 µM/min/mg | 52.5 s⁻¹ | 309000 M⁻¹ s⁻¹ | 
6 | PMGL3 mutant C207F (enzyme) |  |  |  |  | stoichiometry N [6]: 2; stoichiometry N [7]: 4

— article PMC6995580, “Thermal Inactivation of a Cold-Active Esterase PMGL3 Isolated from the Permafrost Metagenomic Library” (Biomolecules, 2019)
